# Results as given in patent publication US20120208237A1 (Novo Nordisk, published 2012).
# B1: human monoclonal antibody 1-7F9 (antibody, human IgG4, kappa, V domains shown)
# VH: QVQLVQSGAEVKKPGSSVKVSCKASGGTFSFYAISWVRQAPGQGLEWMGGFIPIFGAANYAQKFQGRVTITADESTSTAYMELSSLRSDDTAVYYCARIPSGSYYYDYDMDVWGQGTTVTVSS
# VL: EIVLTQSPVTLSLSPGERATLSCRASQSVSSYLAWYQQKPGQAPRLLIYDASNRATGIPARFSGSGSGTDFTLTISSLEPEDFAVYYCQQRSNWMYTFGQGTKLEIKR
# notes: also called HuKIR 1-7F9; HuKIR1-7F9
# Target: T1, KIR2DS3 expressed on transfected cells (human, UniProt Q14952 22-304)
# T1 construct: whole, on cells
# Experiment: flow cytometry on cells transfected with KIR2DS3 (fifth column; its head is printed KIRDLS1 a second time, the legend's order gives KIR2DS3)
# Experimental: The KIR2DL cross-reactive mAbs were then tested for their ability to react with KIR at the surface of cells by flow cytometry. Briefly, the binding of the human anti-KIR mAbs was tested by incubating them with various cell lines stably over-expressing KIRs (e.g., YTS-2DL1, BWZ-KIR2DL2 and BWZ-KIR2DS4) or not expressing KIRs (e.g., YTS and BWZ). Briefly, cells were incubated with various concentrations (typically 0-50 μg/ml) of human anti-KIR mAb1-7F9 in DMEM-medium containing 2% FCS. After incubation, cells were washed and incubated with APC-conjugated secondary antibodies specific for human IgG. All incubations and washing steps were performed at 0-4° C. Subsequently, cells were washed, resuspended in PBS, and analyzed by flow cytometry on a FACScalibur or a FACScanto (both from Beckton Dickinson).
# T1 sequence (Q14952 22-304): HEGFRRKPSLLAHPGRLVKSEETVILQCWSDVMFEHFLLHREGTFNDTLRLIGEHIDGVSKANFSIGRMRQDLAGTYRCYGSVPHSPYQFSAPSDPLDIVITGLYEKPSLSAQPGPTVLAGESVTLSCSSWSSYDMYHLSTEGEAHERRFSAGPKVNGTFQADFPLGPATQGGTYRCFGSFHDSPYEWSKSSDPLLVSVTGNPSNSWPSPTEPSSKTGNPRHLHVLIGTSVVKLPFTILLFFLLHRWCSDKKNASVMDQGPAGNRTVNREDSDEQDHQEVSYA
binder,measurement,value
B1,binding result,no binding (tested: 1 µg/ml)
